This test concerns the target T1, KDR (VEGFR-2) expressed on the cell surface (human, UniProt P35968 20-1356).
T1 construct: whole, on cells; also called endogenous human KDR; KDR of HUVEC cells
The experiment in a line: FACS on HUVEC cells pretreated with 20 ng/ml VEGF, against IMC-1C11 IgG.

T1 sequence (P35968 20-1356): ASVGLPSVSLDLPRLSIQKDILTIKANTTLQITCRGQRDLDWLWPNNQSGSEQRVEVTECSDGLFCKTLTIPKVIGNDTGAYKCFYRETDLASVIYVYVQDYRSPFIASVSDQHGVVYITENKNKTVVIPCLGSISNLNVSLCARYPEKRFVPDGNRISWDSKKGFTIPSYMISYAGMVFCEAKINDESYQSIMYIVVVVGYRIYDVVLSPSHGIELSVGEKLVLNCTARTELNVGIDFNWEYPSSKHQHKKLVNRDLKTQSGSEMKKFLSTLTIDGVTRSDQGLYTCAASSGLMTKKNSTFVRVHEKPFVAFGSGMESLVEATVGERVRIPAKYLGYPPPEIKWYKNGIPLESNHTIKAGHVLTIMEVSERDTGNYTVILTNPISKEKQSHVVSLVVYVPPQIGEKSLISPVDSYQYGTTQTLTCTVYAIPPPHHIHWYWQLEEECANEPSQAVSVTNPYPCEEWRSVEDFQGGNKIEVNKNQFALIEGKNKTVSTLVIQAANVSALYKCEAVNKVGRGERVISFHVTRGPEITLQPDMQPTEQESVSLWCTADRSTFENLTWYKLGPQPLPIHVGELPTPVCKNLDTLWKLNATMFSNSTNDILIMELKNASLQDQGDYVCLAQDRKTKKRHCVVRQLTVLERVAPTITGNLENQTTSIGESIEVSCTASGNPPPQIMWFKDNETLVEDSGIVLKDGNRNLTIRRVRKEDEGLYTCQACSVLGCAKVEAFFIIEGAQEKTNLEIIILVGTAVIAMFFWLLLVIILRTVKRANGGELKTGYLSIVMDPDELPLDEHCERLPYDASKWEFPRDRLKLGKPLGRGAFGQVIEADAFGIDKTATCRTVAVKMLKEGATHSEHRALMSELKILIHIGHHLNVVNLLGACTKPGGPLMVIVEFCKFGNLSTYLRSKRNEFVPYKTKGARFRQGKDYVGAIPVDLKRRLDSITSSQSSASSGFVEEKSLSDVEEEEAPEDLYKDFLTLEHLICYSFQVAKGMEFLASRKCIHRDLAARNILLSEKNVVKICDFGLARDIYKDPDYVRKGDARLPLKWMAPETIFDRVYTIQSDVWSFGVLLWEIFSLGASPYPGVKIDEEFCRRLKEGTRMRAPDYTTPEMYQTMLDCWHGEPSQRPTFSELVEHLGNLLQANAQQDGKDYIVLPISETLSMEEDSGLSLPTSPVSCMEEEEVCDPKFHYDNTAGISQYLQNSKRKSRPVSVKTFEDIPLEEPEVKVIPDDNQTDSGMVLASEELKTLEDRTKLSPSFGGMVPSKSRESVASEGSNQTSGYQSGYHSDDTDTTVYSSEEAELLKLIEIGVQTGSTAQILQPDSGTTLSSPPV

B1: 6A6 IgG (antibody, V domains shown)
VH: QMQLVQSGAEVKKPGASVKLSCKASGYTFSSYWMHWVRQAPGQRLEWMGEINPGNGHTNYNEKFKSRVTITVDKSASTAYMELSSLRSEDTAVYYCAKIWGPSLTSPFDYWGQGTLVTVSS
VL: SNFMLTQPPSVSVSPGKTARITCRGDNLGDVNVHWYQQRPGQAPVLVMYYDADRPSGIPERFSGSNSGNTATLTISGVEAGDEADYYCQVWDRTSEYVFGTGTKVTVLG
notes: Whole human IgG expressed in CHO DG44 cells; also called 6A6 antibody; anti-KDR 6A6 IgG
With B1, the “fold higher KDR neutralizing ability than IMC-1C11 IgG” value is about 2 fold.

The record behind these values is patent publication US20110065176A1 (PHARMABCINE, published 2011).
